In US20250283117, “RNA-GUIDED NUCLEASES AND ACTIVE FRAGMENTS AND VARIANTS THEREOF AND METHODS OF USE” (Life Edit Therapeutics, Inc., published 2025):

Columns and labels:
[1] = test system: T1, APG07433.1 (Bacillus sp.); assay: cleavage_in_vitro; details: PAM NNNNCC; NTS cut 4, TS cut 3, 1 nt 5' overhang (Table 3)
T1 sequence: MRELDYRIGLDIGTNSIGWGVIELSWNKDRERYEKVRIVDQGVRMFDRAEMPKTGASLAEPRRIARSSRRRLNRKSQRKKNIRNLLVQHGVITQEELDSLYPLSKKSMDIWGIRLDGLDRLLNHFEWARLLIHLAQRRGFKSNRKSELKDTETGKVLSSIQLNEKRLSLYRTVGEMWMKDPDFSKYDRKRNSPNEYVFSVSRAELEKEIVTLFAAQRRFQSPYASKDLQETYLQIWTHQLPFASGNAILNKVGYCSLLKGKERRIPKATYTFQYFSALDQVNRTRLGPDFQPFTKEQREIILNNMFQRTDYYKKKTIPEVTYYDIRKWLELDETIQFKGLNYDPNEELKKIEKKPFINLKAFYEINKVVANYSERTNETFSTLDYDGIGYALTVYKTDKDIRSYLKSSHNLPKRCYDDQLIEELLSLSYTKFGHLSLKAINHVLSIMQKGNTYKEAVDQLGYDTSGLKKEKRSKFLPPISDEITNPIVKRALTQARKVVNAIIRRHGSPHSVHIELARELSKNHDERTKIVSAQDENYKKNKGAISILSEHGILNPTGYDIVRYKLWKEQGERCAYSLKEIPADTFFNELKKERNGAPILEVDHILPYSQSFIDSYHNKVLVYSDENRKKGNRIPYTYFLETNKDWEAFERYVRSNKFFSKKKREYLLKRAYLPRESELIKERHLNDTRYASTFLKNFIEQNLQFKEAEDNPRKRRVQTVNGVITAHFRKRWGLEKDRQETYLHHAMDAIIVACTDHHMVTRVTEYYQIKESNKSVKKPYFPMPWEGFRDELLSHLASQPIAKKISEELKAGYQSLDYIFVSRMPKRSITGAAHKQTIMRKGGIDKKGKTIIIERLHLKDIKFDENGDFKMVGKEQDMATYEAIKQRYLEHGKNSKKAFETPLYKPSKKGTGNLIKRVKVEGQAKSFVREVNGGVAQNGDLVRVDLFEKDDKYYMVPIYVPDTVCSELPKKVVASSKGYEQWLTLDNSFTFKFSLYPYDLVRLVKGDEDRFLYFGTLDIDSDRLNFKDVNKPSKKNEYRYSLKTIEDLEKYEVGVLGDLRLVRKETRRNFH

APG07433.1 = molecular target: T2, APG07433.1 (Bacillus sp.); assay: cell_activity; HEK293T; PAM NNNNCC; details: tags: human cells: N-term SV40 NLS and 3xFLAG, C-term nucleoplasmin NLS
T2 chain: T1 sequence
Procedure: (§1) The constructs described above were introduced into mammalian cells. One day prior to transfection, 1×10⁵ HEK293T cells/well (Sigma) were plated in 24-well dishes in Dulbecco's modified Eagle medium (DMEM) plus 10% (vol/vol) fetal bovine serum (Gibco) and 1% Penicillin-Streptomycin (Gibco). The next day when the cells were at 50-60% confluency, 500 ng of a RGN expression plasmid plus 500 ng of a single gRNA expression plasmid were co-transfected using […] of Lipofectamine 3000 (Thermo Scientific) per well, following the manufacturer's instructions. After 48 hours of growth, total genomic DNA was harvested using a genomic DNA isolation kit (Machery-Nagel) according to the manufacturer's instructions.
(§2) Additionally, products from PCR #2 containing Illumina overhang sequences underwent library preparation following the Illumina 16S Metagenomic Sequencing Library protocol. Deep sequencing was performed on an Illumina Mi-Seq platform by a service provider (MOGene). Typically 200,000 of 250 bp paired-end reads (2×100,000 reads) are generated per amplicon. The reads were analyzed using CRISPResso (Pinello, et al. 2016 Nature Biotech, 34:695-697) to calculate the rates of editing. Output alignments were hand-curated to confirm insertion and deletion sites as well as identify microhomology sites at the recombination sites. All experiments were performed in human cells. The “target sequence” is the targeted sequence within the gene target. For each target sequence, the guide RNA comprised the complementary RNA target sequence and the appropriate sgRNA depending on the RGN used.

APG07513.1 = molecular target: T3, APG07513.1 (Bacillus sp.); assay: cell_activity; HEK293T; PAM NNNNCC; details: tags: E. coli pRSF-1b expression; human cells: N-term SV40 NLS and 3xFLAG, C-term nucleoplasmin NLS
T3 chain: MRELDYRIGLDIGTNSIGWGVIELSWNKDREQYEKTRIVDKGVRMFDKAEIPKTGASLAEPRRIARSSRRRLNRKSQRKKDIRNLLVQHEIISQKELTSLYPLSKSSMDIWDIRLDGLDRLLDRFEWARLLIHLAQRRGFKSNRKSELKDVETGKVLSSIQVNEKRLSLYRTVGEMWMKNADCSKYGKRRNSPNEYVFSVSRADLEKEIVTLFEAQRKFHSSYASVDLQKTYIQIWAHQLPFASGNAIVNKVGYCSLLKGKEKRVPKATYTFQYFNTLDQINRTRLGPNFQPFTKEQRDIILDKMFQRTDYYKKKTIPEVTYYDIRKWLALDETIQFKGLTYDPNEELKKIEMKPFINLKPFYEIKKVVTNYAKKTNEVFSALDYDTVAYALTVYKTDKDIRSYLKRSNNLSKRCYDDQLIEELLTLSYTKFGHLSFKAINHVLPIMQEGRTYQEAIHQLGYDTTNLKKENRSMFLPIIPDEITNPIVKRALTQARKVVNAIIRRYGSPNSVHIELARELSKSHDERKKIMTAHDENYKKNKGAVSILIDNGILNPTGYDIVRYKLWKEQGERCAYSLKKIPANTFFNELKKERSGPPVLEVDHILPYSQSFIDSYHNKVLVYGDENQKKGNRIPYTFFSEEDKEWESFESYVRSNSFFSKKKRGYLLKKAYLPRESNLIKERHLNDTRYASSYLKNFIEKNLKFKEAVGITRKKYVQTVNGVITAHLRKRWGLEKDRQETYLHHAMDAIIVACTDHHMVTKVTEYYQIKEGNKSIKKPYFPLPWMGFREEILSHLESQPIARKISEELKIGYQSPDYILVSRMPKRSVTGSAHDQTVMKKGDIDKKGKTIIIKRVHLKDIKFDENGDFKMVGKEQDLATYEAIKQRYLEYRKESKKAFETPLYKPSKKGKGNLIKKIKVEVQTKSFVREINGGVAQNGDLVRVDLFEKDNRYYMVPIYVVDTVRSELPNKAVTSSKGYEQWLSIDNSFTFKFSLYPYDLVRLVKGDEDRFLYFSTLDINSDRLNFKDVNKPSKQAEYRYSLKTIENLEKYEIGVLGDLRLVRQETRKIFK
Procedure: as §1, §2

In the case of “GAGCGGACAGCAGCUUCCUAUAUCUCGUACNNNNNNNNNNNNNNNNNNNNNNNNNGUCAUAGUUCCAUUAAAGCCAAAAGUGGCUUUGAUGUUUCUAUGAUAAGGGUUUCGACCCGUGGCGUCGGGGAUCGCCUGCCCAUUGAAAUGGGCUUCUCCCCAUUUAUU / GAGCGGACAGCAGCTTCCTATATCTCGTAC / GTACGAGATATAGGAAGCTGCTGTCCGCTC [Sequence 1 sgRNA for APG07433.1 ; Sequence 1 target]”, the activity [1] is reported as 86 % cleaved.

B1: Guide 173 ; HPRT1 target of guide 173 (ssRNA ; dsDNA)
RNA: CUUCUAUAGCCUCCUUCCCCGUCAUAGUUCCAUUAAAGCCAAAAGUGGCUUUGAUGUUUCUAUGAUAAGGGUUUCGACCCGUGGCGUCGGGGAUCGCCUGCCCAUUGAAAUGGGCUUCUCCCCAUUUAUU
DNA 1: CTTCTATAGCCTCCTTCCCC
DNA 2: GGGGAAGGAGGCTATAGAAG
With B1 the activity (APG07433.1) was 26.6 % editing.

B2: Guide 144 ; AurkB target of guide 144 (ssRNA ; dsDNA)
RNA: CAUGGCAGUACAUUAGAGCAGUCAUAGUUCCAUUAAAGCCAUUGCUGAAAGACAGCAAUGGCUUUGAUGUUUCUAUGAUAAGGGCUUCGGCCCGUGGCGUUGGGGAUCGCCUGCCCAUUUUAAUGGGCUUCUCCCCAUCUAUUU
DNA 1: CATGGCAGTACATTAGAGCA
DNA 2: TGCTCTAATGTACTGCCATG
For B2, the activity (APG07513.1) was 2.4 % editing.

B3: Guide 136 ; AurkB target of guide 136 (ssRNA ; dsDNA)
RNA: GGGCCAUUAAAACCUCUCCAGUCAUAGUUCCAUUAAAGCCAUUGCUGAAAGACAGCAAUGGCUUUGAUGUUUCUAUGAUAAGGGCUUCGGCCCGUGGCGUUGGGGAUCGCCUGCCCAUUUUAAUGGGCUUCUCCCCAUCUAUUU
DNA 1: GGGCCATTAAAACCTCTCCA
DNA 2: TGGAGAGGTTTTAATGGCCC
B3 was tested, and the activity (APG07513.1) was 0.9 % editing.
